Test system: peptide library, one residue held at a place counted from the Y acceptor
Assay: relative phosphorylation of the sub-library (ratio to the mean residue at this position); higher = residue favoured
Outline: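 Peptide library mixtures, biotinylated and centred on Tyr, each fixed one residue at one position from −5 to +5. Purified recombinant kinases were incubated with them for 90 min in 384-well plates alongside 50 μM ATP and γ-32P-ATP, and the captured, rinsed peptides on streptavidin membranes were measured by phosphorimaging and ImageQuant. Normalization divided each position's intensities by the sum of its 18 randomized residues (16 for the Ser/Thr-free library) and multiplied by that number, so that values give phosphorylation relative to the mean randomized residue.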

Sequence of JAK1, construct: aa866-end, human (P23458 866-1154, looked up): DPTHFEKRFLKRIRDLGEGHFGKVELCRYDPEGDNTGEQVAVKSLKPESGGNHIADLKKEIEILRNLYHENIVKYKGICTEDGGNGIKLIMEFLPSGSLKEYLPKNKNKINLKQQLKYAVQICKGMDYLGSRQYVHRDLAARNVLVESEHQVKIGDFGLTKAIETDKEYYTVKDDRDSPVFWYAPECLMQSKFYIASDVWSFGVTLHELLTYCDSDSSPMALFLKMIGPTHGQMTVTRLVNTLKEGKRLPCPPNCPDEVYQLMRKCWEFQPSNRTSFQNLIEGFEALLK
Sequence of LYN, construct: Full length, human (P07948 whole entry, looked up): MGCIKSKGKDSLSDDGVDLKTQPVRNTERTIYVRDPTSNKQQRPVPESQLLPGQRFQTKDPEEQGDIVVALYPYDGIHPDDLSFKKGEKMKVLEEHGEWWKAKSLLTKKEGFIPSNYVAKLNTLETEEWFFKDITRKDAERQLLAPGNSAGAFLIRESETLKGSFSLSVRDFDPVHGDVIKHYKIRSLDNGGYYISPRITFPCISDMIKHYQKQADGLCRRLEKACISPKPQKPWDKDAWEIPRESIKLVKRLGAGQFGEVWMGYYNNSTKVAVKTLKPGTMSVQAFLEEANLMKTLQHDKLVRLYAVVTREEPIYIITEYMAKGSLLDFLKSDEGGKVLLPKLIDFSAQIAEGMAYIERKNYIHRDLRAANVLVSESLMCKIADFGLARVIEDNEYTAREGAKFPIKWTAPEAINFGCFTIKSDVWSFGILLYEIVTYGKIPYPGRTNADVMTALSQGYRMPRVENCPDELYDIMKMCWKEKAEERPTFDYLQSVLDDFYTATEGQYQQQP

JAK1, construct: aa866-end, human (from UniProt P23458)
relative phosphorylation
Settings | at +1 | at +2 | at +3 | at +4 | at +5 | at -1 | at -2 | at -3 | at -4 | at -5
A fixed | 0.719 | 1.02 | 0.75 | 0.954 | 1.06 | 1.36 | 1.03 | 1.03 | 1.2 | 1.05
D fixed | 0.171 | 0.329 | 0.239 | 0.618 | 0.655 | 0.907 | 0.905 | 0.919 | 0.963 | 0.916
E fixed | 0.237 | 0.402 | 0.195 | 0.79 | 0.649 | 1.08 | 0.81 | 0.891 | 1.02 | 0.871
F fixed | 2.15 | 0.807 | 1.02 | 1.08 | 1.09 | 1.11 | 0.81 | 1.1 | 1.23 | 1.03
G fixed | 0.385 | 0.788 | 0.879 | 1.19 | 1.19 | 1.44 | 1.21 | 1.11 | 1.19 | 1.16
H fixed | 0.87 | 0.545 | 0.714 | 1.05 | 0.906 | 0.847 | 0.915 | 0.905 | 0.788 | 0.931
I fixed | 2.1 | 0.695 | 2.37 | 0.834 | 0.784 | 1.24 | 0.941 | 0.795 | 0.861 | 1.04
K fixed | 0.286 | 1.88 | 0.713 | 1.25 | 1.16 | 0.364 | 0.824 | 0.732 | 0.851 | 1.01
L fixed | 2.04 | 0.871 | 2.13 | 0.875 | 0.886 | 1.24 | 1.04 | 1.15 | 1.12 | 1.09
M fixed | 2.06 | 0.911 | 1.35 | 1.11 | 0.897 | 1.17 | 1.03 | 1.09 | 0.983 | 1.07
N fixed | 0.289 | 1.04 | 0.752 | 0.882 | 0.923 | 0.749 | 1.05 | 1.02 | 0.784 | 0.914
P fixed | 0.371 | 1.55 | 0.755 | 0.89 | 1.41 | 1.63 | 1.13 | 1.41 | 1.33 | 1.24
Q fixed | 0.699 | 0.893 | 0.494 | 1.03 | 0.852 | 0.661 | 1.06 | 0.845 | 1.09 | 0.953
R fixed | 0.509 | 2.13 | 0.985 | 1.45 | 1.33 | 0.414 | 1.02 | 0.851 | 0.929 | 0.911
S fixed | 0.534 | 1.43 | 0.836 | 1.16 | 1.21 | 0.813 | 1.33 | 1.13 | 0.844 | 0.904
T fixed | 0.812 | 1.09 | 1.2 | 0.956 | 1.19 | 0.865 | 1.05 | 0.983 | 0.678 | 0.805
V fixed | 1.8 | 0.832 | 1.67 | 0.887 | 0.838 | 1.35 | 0.931 | 0.957 | 0.922 | 0.953
W fixed | 1.96 | 0.781 | 0.953 | 0.988 | 0.971 | 0.756 | 0.89 | 1.08 | 1.22 | 1.14
pThr fixed | 0.349 | 0.342 | 0.188 | 0.413 | 0.485 | 0.849 | 0.695 | 0.704 | 0.872 | 0.823
pTyr fixed | 0.608 | 0.384 | 0.271 | 0.735 | 0.608 | 2.64 | 0.751 | 0.934 | 0.929 | 0.925

LYN, construct: Full length, human (from UniProt P07948)
relative phosphorylation
Settings | at +1 | at +2 | at +3 | at +4 | at +5 | at -1 | at -2 | at -3 | at -4 | at -5
A fixed | 1.69 | 0.956 | 0.493 | 0.796 | 0.932 | 0.577 | 1.02 | 0.769 | 1.09 | 1.05
D fixed | 0.936 | 0.672 | 0.237 | 0.582 | 0.535 | 0.838 | 1.44 | 1.77 | 1.3 | 1.27
E fixed | 1.64 | 1.58 | 0.258 | 0.623 | 0.514 | 1.1 | 1.63 | 2.4 | 1.61 | 1.09
F fixed | 0.757 | 1.12 | 3.21 | 1.07 | 1.48 | 1.27 | 0.808 | 1.09 | 1.44 | 1.06
G fixed | 2.35 | 0.704 | 0.661 | 0.923 | 1 | 0.445 | 1.2 | 0.939 | 1.14 | 1.04
H fixed | 0.807 | 0.613 | 0.68 | 1.22 | 0.988 | 0.505 | 0.773 | 0.703 | 0.641 | 0.871
I fixed | 1.15 | 1.13 | 2.63 | 0.899 | 0.956 | 3.44 | 1.05 | 0.802 | 0.922 | 1.02
K fixed | 0.22 | 0.682 | 0.443 | 1.25 | 1.21 | 0.21 | 0.489 | 0.427 | 0.582 | 0.805
L fixed | 0.822 | 0.804 | 1.47 | 0.911 | 1.04 | 2.08 | 0.993 | 0.835 | 1.24 | 1.03
M fixed | 1.04 | 0.935 | 0.896 | 1.09 | 0.848 | 0.982 | 0.635 | 0.992 | 0.992 | 1.07
N fixed | 0.628 | 0.943 | 0.347 | 0.803 | 0.66 | 0.381 | 1.14 | 1.09 | 0.82 | 1.09
P fixed | 0.226 | 0.911 | 0.638 | 1.06 | 1.28 | 0.791 | 1.14 | 1.24 | 0.991 | 1.03
Q fixed | 1.1 | 0.963 | 0.352 | 1.14 | 0.778 | 0.463 | 1.03 | 0.917 | 1.19 | 1.09
R fixed | 0.31 | 0.92 | 0.974 | 1.38 | 1.32 | 0.2 | 0.524 | 0.45 | 0.6 | 0.762
S fixed | 1.05 | 1.31 | 0.507 | 0.974 | 1.05 | 0.413 | 1.16 | 0.905 | 0.721 | 0.833
T fixed | 0.795 | 1.33 | 0.59 | 0.851 | 1.01 | 1.22 | 0.964 | 0.823 | 0.669 | 0.765
V fixed | 1.3 | 1.2 | 1.4 | 0.824 | 0.893 | 2.27 | 1.02 | 0.696 | 0.803 | 0.885
W fixed | 1.18 | 1.22 | 2.21 | 1.61 | 1.5 | 0.811 | 0.977 | 1.15 | 1.25 | 1.23
pThr fixed | 0.927 | 1.68 | 0.243 | 0.385 | 0.435 | 2.22 | 1.34 | 1.24 | 1.14 | 1.11
pTyr fixed | 1.36 | 1.98 | 0.397 | 0.897 | 0.487 | 1.35 | 1.2 | 1.49 | 1.45 | 1.21

MST1R (from UniProt Q04912)
relative phosphorylation
Settings | at +1 | at +2 | at +3 | at +4 | at +5 | at -1 | at -2 | at -3 | at -4 | at -5
A fixed | 0.871 | 0.845 | 0.68 | 0.963 | 1.06 | 0.744 | 0.976 | 0.932 | 1.03 | 0.978
D fixed | 0.356 | 0.803 | 0.406 | 0.696 | 0.865 | 1.38 | 1.03 | 1.2 | 1.02 | 0.894
E fixed | 0.55 | 0.767 | 0.281 | 0.622 | 0.874 | 1.01 | 0.864 | 1.06 | 0.966 | 0.851
F fixed | 1.62 | 0.938 | 1.28 | 1.1 | 0.582 | 1.06 | 0.794 | 0.996 | 1.1 | 1.1
G fixed | 0.645 | 0.821 | 0.766 | 1.17 | 1.25 | 0.665 | 1.38 | 1.21 | 1.25 | 1.13
H fixed | 1.3 | 0.906 | 0.968 | 1.11 | 1.03 | 1.12 | 0.938 | 0.991 | 0.847 | 0.989
I fixed | 1.51 | 1 | 2.14 | 0.923 | 0.473 | 1.36 | 0.957 | 0.801 | 0.85 | 0.932
K fixed | 0.618 | 1.14 | 0.612 | 0.921 | 1.66 | 0.806 | 1.04 | 1 | 1.08 | 1.13
L fixed | 1.32 | 1.15 | 1.67 | 0.924 | 0.626 | 1.29 | 0.903 | 0.937 | 1.04 | 1.07
M fixed | 1.15 | 0.99 | 1.32 | 1.1 | 0.715 | 0.904 | 0.685 | 0.845 | 0.941 | 0.974
N fixed | 0.594 | 1.13 | 0.492 | 0.82 | 1.23 | 1.25 | 0.978 | 1.01 | 0.796 | 0.864
P fixed | 0.672 | 0.967 | 1.17 | 1.03 | 1.57 | 0.768 | 1.31 | 1.09 | 1.16 | 1.07
Q fixed | 1.04 | 0.996 | 0.577 | 1.04 | 1.16 | 0.977 | 1.07 | 1.01 | 0.996 | 0.946
R fixed | 0.922 | 1.3 | 0.862 | 1.34 | 1.75 | 0.757 | 1.28 | 1.18 | 1.09 | 1.18
S fixed | 0.901 | 0.95 | 0.712 | 0.897 | 1.25 | 0.777 | 1.23 | 1.2 | 0.87 | 0.974
T fixed | 0.876 | 0.792 | 0.623 | 0.85 | 1.17 | 0.899 | 0.973 | 0.91 | 0.821 | 0.884
V fixed | 1.46 | 1.04 | 1.36 | 0.901 | 0.579 | 1.15 | 1.02 | 0.728 | 0.89 | 0.939
W fixed | 1.36 | 1.2 | 1.41 | 1.34 | 0.575 | 0.762 | 0.77 | 0.997 | 0.953 | 0.953
pThr fixed | 0.564 | 0.981 | 0.277 | 0.414 | 0.638 | 1.16 | 1.02 | 0.95 | 0.758 | 0.795
pTyr fixed | 1.73 | 1.79 | 0.651 | 1.11 | 0.728 | 2.14 | 1.1 | 1.13 | 1.04 | 0.922

Reference: the supplement of paper PMC11136658
